Results from US20240368242A1.

Molecular target: recombinant murine CD40 protein (murine) (UniProt P27512)
Assay: SPR, binding to mCD40

Chain of recombinant murine CD40 protein (murine) (P27512 24-193 limits assumed): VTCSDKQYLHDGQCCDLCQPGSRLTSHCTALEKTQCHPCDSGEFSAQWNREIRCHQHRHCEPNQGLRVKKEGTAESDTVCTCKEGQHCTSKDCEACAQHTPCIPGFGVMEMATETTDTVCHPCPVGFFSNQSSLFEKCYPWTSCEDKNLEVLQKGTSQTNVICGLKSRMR

Kd: 3.23 nM
koff: 9.81e-05 s⁻¹
kon: 30400 M⁻¹ s⁻¹
B1: mCD40L-Fc (Fc fusion, from a related filing)
chain: MQRGDEDPQIAAHVVSEANSNAASVLQWAKKGYYTMKSNLVMLENGKQLTVKREGLYYVYTQVTFCSNREPSSQRPFIVGLWLKPSSGSERILLKAANTHSSSQLCEQQSVHLGGVFELQAGASVFVNVTEASQVIHRVGFSSFGLLKL
modifications: left off: a dimerising Fc or GST
